Assay results: patent US20120283172A1
Like-named read-outs stand apart in the source and are kept apart here.

How the values were obtained:
[1] = molecular target: human growth hormone receptor on IM-9 cells (human) (UniProt P10912); experiment: cell-based or functional assay
[2] = molecular target: human growth hormone receptor on IM-9 cells (human) (UniProt P10912)
[3] = molecular target: human growth hormone receptor on IM-9 cells (human) (UniProt P10912); remark: listed apart in the source

UniProt P10912, sequence (P10912 19-638): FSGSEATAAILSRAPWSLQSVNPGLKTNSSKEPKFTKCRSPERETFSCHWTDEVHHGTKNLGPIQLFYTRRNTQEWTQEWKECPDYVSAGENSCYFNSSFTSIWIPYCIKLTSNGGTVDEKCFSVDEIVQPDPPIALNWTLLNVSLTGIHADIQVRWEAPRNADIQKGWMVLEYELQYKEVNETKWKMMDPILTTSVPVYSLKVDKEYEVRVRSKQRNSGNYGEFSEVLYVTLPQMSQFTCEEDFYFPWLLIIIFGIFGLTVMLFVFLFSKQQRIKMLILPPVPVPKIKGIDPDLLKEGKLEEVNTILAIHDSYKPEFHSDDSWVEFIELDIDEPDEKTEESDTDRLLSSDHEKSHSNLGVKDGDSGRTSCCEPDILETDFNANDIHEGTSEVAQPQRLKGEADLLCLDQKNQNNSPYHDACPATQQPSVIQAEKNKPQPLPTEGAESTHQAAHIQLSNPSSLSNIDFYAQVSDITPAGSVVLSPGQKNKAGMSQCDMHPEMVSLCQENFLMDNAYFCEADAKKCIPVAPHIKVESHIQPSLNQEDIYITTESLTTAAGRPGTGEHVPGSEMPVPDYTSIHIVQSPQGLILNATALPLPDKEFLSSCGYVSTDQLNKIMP

## hGH T135pAF (from UniProt P01241 27-217) (ligand)
[1]
  EC50 of STAT5 phosphorylation in IM-9 cells (MFI by intracellular phospho-STAT5 staining): 0.9 nM

## His-tagged hGH Y143pAF (from UniProt P01241 27-217) (ligand)
[1]
  EC50 of STAT5 phosphorylation in IM-9 cells (MFI by intracellular phospho-STAT5 staining): 0.8 nM

## hGH N99pAF (from UniProt P01241 27-217) (ligand)
[1]
  EC50 of STAT5 phosphorylation in IM-9 cells (MFI by intracellular phospho-STAT5 staining): 8.5 nM

## hGH Q91pAF (from UniProt P01241 27-217) (ligand)
[1]
  EC50 of STAT5 phosphorylation in IM-9 cells (MFI by intracellular phospho-STAT5 staining): 2 nM

## hGH F92pAF (from UniProt P01241 27-217) (ligand)
[2]
  EC50, STAT5 phosphorylation in IM-9 cells (intracellular phospho-STAT5 staining, FACS, MFI PE): 0.9 nM
[3]
  EC50, STAT5 phosphorylation in IM-9 cells (intracellular phospho-STAT5 staining, FACS, MFI PE): 1.1 nM
[1]
  EC50 of STAT5 phosphorylation in IM-9 cells (MFI by intracellular phospho-STAT5 staining): 0.8 nM

## hGH G136pAF (from UniProt P01241 27-217) (ligand)
[1]
  EC50 of STAT5 phosphorylation in IM-9 cells (MFI by intracellular phospho-STAT5 staining): 1.4 nM

## hGH F139pAF (from UniProt P01241 27-217) (ligand)
[1]
  EC50 of STAT5 phosphorylation in IM-9 cells (MFI by intracellular phospho-STAT5 staining): 3.3 nM

## hGH G131pAF (from UniProt P01241 27-217) (ligand)
[1]
  EC50 of STAT5 phosphorylation in IM-9 cells (MFI by intracellular phospho-STAT5 staining): 0.8 nM

## hGH Y103pAF (from UniProt P01241 27-217) (ligand)
[1]
  EC50 of STAT5 phosphorylation in IM-9 cells (MFI by intracellular phospho-STAT5 staining): 130000 nM

## hGH A155pAF (from UniProt P01241 27-217) (ligand)
[1]
  EC50 of STAT5 phosphorylation in IM-9 cells (MFI by intracellular phospho-STAT5 staining): 1.3 nM

## hGH S95pAF (from UniProt P01241 27-217) (ligand)
[1]
  EC50 of STAT5 phosphorylation in IM-9 cells (MFI by intracellular phospho-STAT5 staining): 16.7 nM

## (His)F92pAF-5K (ligand)
[2]
  EC50, STAT5 phosphorylation in IM-9 cells (intracellular phospho-STAT5 staining, FACS, MFI PE): 1.5 nM

## hGH E88pAF (from UniProt P01241 27-217) (ligand)
[1]
  EC50 of STAT5 phosphorylation in IM-9 cells (MFI by intracellular phospho-STAT5 staining): 0.9 nM

## hGH Y111pAF (from UniProt P01241 27-217) (ligand)
[1]
  EC50 of STAT5 phosphorylation in IM-9 cells (MFI by intracellular phospho-STAT5 staining): 1 nM

## rat growth hormone, wild type (from UniProt P01244 27-216) (ligand)
[1]
  EC50 of STAT5 phosphorylation in IM-9 cells (MFI by intracellular phospho-STAT5 staining): > 200000 nM

## hGH K140pAF (from UniProt P01241 27-217) (ligand)
[1]
  EC50 of STAT5 phosphorylation in IM-9 cells (MFI by intracellular phospho-STAT5 staining): 2.7 nM

## (His)F92-pAF-30K (ligand)
[2]
  EC50, STAT5 phosphorylation in IM-9 cells (intracellular phospho-STAT5 staining, FACS, MFI PE): 4.1 nM

## (His)F92pAF-20K (ligand)
[2]
  EC50, STAT5 phosphorylation in IM-9 cells (intracellular phospho-STAT5 staining, FACS, MFI PE): 4.6 nM

## hGH R134pAF (from UniProt P01241 27-217) (ligand)
[1]
  EC50 of STAT5 phosphorylation in IM-9 cells (MFI by intracellular phospho-STAT5 staining): 0.9 nM

## hGH P133pAF (from UniProt P01241 27-217) (ligand)
[1]
  EC50 of STAT5 phosphorylation in IM-9 cells (MFI by intracellular phospho-STAT5 staining): 1 nM
